# Source: patent publication US20200199241A1 (Chugai, published 2020)
# Residue numbers refer to the chain shown, from its start. In names and notes the source's numbering stands.
# T1: human FcγRIIa(R) (human, UniProt P12318 36-217)
# T1 construct: also called FcgRIIaR; FcγRIIa type R
# T1 chain: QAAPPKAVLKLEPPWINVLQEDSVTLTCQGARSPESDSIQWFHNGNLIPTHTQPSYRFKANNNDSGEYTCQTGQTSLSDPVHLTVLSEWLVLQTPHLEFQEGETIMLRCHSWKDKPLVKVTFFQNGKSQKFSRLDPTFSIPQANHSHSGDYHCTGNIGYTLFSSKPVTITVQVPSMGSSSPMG
# T2: human FcγRIIa(H) (human, UniProt P12318 36-217)
# T2 construct: also called FcgRIIaH; FcγRIIa type H
# T2 sequence: T1 chain with R133H
# T3: human FcγRIIb (human, UniProt P31994 43-217, limits assumed)
# T3 construct: also called FcgRIIb
# T3 sequence: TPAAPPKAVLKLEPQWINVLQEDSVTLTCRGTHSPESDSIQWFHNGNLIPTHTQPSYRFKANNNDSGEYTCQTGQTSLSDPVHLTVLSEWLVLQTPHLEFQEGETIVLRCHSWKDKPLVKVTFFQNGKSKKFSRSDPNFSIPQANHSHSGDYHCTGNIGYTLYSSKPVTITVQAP
# B1: GpH7-B3 variant L235K/GpL16-k0 (antibody, human IgG1)
# heavy: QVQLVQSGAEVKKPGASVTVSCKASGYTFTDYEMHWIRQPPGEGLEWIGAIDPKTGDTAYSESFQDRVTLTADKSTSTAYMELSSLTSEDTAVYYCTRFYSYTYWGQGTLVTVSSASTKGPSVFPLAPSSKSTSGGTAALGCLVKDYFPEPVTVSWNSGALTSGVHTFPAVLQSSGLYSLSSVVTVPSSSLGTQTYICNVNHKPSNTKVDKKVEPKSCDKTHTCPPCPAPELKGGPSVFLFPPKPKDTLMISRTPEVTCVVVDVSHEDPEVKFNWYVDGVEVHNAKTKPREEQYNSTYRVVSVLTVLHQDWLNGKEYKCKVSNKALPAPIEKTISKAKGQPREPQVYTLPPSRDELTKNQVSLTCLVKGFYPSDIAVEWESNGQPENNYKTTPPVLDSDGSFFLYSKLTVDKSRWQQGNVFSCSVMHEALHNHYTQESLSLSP
# light: DIVMTQSPLSLPVTPGEPASISCQASESLVHSNRNTYLHWYLQKPGQSPQLLIYKVSNRFSGVPDRFSGSGSGTDFTLKISRVEAEDVGVYYCSQNTHVPPTFGQGTKVEIE
# notes: copies: 2 + 2
# B2: GpH7-B3 variant L235S/GpL16-k0 (antibody, human IgG1)
# heavy: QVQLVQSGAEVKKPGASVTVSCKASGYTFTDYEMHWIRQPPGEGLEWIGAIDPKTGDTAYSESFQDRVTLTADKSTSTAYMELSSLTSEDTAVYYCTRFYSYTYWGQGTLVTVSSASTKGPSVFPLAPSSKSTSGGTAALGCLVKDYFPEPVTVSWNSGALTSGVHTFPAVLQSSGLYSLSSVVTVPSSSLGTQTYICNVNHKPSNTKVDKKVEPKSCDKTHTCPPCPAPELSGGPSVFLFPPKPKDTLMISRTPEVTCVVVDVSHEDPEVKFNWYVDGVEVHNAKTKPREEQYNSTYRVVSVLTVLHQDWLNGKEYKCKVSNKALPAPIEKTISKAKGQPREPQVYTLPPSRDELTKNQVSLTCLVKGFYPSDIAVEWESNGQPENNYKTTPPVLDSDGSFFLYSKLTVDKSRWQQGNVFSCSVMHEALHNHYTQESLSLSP
# light: B1 light
# notes: copies: 2 + 2
# B3: GpH7-B3 variant L235P/GpL16-k0 (antibody, human IgG1)
# heavy: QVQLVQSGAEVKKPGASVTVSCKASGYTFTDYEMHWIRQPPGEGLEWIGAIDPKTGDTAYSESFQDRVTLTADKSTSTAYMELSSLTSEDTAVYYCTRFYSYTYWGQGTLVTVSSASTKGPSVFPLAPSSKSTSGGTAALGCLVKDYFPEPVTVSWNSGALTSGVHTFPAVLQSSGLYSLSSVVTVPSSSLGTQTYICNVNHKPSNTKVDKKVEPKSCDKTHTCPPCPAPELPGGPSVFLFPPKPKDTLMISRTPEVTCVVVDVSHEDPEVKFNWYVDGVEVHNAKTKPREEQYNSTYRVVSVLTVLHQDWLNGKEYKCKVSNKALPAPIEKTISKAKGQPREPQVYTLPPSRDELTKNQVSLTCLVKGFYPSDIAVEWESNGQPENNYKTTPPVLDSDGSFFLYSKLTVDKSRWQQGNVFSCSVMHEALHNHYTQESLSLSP
# light: B1 light
# notes: copies: 2 + 2
# B4: GpH7-B3 variant L234P/GpL16-k0 (antibody, human IgG1)
# heavy: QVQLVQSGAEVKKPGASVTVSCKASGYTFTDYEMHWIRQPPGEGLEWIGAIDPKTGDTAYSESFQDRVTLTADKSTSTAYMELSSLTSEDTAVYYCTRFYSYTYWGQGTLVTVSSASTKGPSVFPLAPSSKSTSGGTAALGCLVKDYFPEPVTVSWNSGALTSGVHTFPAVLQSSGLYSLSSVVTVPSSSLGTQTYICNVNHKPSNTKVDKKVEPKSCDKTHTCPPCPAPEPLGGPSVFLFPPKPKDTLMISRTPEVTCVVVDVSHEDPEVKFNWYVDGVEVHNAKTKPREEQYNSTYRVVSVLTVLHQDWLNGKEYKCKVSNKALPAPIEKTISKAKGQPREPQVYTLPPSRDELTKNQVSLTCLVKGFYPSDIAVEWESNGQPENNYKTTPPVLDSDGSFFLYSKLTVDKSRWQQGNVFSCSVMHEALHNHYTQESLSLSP
# light: B1 light
# notes: copies: 2 + 2
# B5: GpH7-B3 variant L234W/GpL16-k0 (antibody, human IgG1)
# heavy: not shown
# light: B1 light
# notes: copies: 2 + 2
# B6: GpH7-B3 variant L234Q/GpL16-k0 (antibody, human IgG1)
# heavy: not shown
# light: B1 light
# notes: copies: 2 + 2
# B7: GpH7-B3 variant P238A/GpL16-k0 (antibody, human IgG1)
# heavy: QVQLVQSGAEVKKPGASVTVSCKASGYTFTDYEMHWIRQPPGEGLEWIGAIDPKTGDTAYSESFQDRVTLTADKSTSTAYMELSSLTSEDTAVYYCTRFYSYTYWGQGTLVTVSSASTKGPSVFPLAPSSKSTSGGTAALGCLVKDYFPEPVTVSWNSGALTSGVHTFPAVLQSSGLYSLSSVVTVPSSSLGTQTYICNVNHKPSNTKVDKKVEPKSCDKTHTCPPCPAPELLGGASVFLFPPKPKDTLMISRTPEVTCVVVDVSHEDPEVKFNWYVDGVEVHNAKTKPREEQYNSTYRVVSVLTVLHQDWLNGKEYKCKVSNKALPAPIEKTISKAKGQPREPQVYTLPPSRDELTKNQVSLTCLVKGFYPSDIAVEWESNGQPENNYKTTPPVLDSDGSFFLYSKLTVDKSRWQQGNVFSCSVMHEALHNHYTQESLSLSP
# light: B1 light
# notes: copies: 2 + 2
# B8: GpH7-B3 variant L235D/GpL16-k0 (antibody, human IgG1)
# heavy: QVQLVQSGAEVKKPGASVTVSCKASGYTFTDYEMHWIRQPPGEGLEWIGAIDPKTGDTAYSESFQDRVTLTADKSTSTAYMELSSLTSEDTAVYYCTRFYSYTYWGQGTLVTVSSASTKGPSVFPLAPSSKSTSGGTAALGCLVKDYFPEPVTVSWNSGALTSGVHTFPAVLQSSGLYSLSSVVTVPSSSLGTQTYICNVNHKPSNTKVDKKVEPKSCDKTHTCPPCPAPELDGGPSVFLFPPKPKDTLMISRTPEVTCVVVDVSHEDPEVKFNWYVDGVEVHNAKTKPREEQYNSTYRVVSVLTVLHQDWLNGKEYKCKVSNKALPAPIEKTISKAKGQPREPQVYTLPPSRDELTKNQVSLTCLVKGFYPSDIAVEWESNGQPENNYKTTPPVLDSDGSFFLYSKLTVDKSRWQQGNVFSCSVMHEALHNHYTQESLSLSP
# light: B1 light
# notes: copies: 2 + 2
# B9: GpH7-B3 variant L234N/GpL16-k0 (antibody, human IgG1)
# heavy: not shown
# light: B1 light
# notes: copies: 2 + 2
# B10: GpH7-B3 variant L235M/GpL16-k0 (antibody, human IgG1)
# heavy: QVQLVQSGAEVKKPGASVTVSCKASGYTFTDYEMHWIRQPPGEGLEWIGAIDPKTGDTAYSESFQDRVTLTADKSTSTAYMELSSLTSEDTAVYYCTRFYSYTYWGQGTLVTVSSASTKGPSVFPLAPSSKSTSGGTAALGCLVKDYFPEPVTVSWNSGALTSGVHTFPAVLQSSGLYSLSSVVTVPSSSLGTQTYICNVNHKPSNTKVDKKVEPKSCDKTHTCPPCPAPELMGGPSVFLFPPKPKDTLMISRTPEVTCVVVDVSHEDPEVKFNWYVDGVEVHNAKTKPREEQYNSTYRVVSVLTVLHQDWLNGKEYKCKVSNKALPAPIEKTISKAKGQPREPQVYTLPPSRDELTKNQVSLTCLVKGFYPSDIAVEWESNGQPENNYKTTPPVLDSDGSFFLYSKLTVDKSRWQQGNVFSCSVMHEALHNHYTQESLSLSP
# light: B1 light
# notes: copies: 2 + 2
# B11: GpH7-B3 variant L235R/GpL16-k0 (antibody, human IgG1)
# heavy: not shown
# light: B1 light
# notes: copies: 2 + 2
# B12: GpH7-B3 variant L234R/GpL16-k0 (antibody, human IgG1)
# heavy: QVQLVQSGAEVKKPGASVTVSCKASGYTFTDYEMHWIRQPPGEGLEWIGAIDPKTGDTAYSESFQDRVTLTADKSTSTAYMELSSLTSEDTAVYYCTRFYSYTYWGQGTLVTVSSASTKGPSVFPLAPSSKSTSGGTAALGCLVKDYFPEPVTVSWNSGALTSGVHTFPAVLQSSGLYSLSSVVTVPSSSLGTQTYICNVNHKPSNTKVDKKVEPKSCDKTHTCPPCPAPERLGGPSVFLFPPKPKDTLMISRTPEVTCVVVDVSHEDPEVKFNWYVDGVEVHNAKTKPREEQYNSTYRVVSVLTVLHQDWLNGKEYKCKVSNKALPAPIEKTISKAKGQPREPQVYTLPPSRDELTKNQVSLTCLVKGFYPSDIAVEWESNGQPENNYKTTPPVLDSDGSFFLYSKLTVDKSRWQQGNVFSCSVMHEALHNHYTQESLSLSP
# light: B1 light
# notes: copies: 2 + 2
# B13: GpH7-B3 variant P238G/GpL16-k0 (antibody, human IgG1)
# heavy: not shown
# light: B1 light
# notes: copies: 2 + 2
# B14: GpH7-B3 variant L235A/GpL16-k0 (antibody, human IgG1)
# heavy: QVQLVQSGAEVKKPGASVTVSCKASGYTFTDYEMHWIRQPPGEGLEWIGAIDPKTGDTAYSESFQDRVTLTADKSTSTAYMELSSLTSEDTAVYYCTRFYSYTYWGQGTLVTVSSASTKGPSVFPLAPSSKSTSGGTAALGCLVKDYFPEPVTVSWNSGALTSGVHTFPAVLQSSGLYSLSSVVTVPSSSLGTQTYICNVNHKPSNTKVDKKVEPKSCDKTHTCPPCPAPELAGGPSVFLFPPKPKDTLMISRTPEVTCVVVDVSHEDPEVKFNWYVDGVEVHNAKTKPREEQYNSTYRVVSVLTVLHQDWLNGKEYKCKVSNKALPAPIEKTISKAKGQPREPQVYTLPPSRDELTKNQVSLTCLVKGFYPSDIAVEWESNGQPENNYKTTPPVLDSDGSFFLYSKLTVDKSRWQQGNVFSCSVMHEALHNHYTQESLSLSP
# light: B1 light
# notes: copies: 2 + 2
# B15: GpH7-B3 variant L235H/GpL16-k0 (antibody, human IgG1)
# heavy: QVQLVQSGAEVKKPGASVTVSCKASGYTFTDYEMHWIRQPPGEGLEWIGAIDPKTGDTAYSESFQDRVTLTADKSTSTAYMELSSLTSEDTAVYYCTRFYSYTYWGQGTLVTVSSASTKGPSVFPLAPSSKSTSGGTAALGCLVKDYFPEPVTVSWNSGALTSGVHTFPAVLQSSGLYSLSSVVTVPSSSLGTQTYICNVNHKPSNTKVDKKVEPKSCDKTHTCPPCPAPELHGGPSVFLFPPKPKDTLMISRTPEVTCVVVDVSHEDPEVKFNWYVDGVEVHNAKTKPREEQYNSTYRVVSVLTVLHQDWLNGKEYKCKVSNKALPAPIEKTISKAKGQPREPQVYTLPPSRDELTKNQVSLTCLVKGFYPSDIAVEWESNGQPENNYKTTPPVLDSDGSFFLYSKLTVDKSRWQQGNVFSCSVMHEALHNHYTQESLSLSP
# light: B1 light
# notes: copies: 2 + 2
# Biological target: T1, human FcγRIIa(R)
# Experiment: SPR (Biacore);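 further: antibody variants captured on sensor chip, Fcγ receptor flowed over at 25 °C, bound receptor normalized to amount of captured antibody, expressed relative to reference antibody set as 100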
# Method: (§1) Interaction between each modified antibody and Fcγ receptor prepared in the manner described above was analyzed using the BIACORE™ T100 surface plasmon resonance system (GE Healthcare), BIACORE™ T200 surface plasmon resonance system (GE Healthcare), BIACORE™ A100 surface plasmon resonance system or BIACORE™ 4000 surface plasmon resonance system. HBS-EP+ (GE Healthcare) was used for the running buffer, and measurements were carried out at 25° C. The chips used were chips in which antigen peptides, Protein A (Thermo Scientific), Protein A/G (Thermo Scientific) or Protein L (ACTIGEN® protein (Alltech or BioVision) were immobilized on the Series S Sensor Chip CMS (GE Healthcare) or Series S Sensor Chip CM4 (GE Healthcare) by amine coupling, or chips in which preliminarily biotinylated antigen peptides were allowed to interact and then immobilized on the Series S Sensor Chip SA (certified) (GE Healthcare). The target antibodies were captured on these sensor chips, Fcγ receptor diluted with the running buffer was allowed to interact, followed by measurement of the amount of bound antibody. The amounts bound were compared between antibodies. However, since the amount of Fcγ receptor bound depends on the amount of captured antibody, the values used for comparison were first corrected by dividing the amount of Fcγ receptor bound by the captured amount of each antibody. Through reaction with 10 mM glycine-HCl at pH 1.5, the sensor chips were regenerated by washing off antibody captured on the sensor chips and used repeatedly.
# (§2) Binding strength was evaluated according to the following method based on the results of analyzing the interaction with each FcγR. […] That value was then further multiplied by 100, and the resulting value was used as an indicator of relative binding activity to each FcγR.
row,relative binding activity,Binder
1,-5 % of GpH7-B3/GpL16-k0,B1
2,29 % of GpH7-B3/GpL16-k0,B2
3,38 % of GpH7-B3/GpL16-k0,B3
4,41 % of GpH7-B3/GpL16-k0,B4
5,64 % of GpH7-B3/GpL16-k0,B5
6,18 % of GpH7-B3/GpL16-k0,B6
7,38 % of GpH7-B3/GpL16-k0,B7
8,87 % of GpH7-B3/GpL16-k0,B8
9,36 % of GpH7-B3/GpL16-k0,B9
10,72 % of GpH7-B3/GpL16-k0,B10
11,-4 % of GpH7-B3/GpL16-k0,B11
12,0 % of GpH7-B3/GpL16-k0,B12
13,4 % of GpH7-B3/GpL16-k0,B13
14,50 % of GpH7-B3/GpL16-k0,B14
15,91 % of GpH7-B3/GpL16-k0,B15

# Biological target: T4, human FcγRIa (human, UniProt P12314 16-292, limits assumed)
# T4 construct: also called FcgRIa; FcγRI (CD64)
# Experiment: SPR (Biacore);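 further: antibody variants captured on sensor chip, Fcγ receptor flowed over at 25 °C, bound receptor normalized to amount of captured antibody, expressed relative to reference antibody set as 100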
# Method: as §1, §2
# T4 sequence (P12314 16-292 limits assumed): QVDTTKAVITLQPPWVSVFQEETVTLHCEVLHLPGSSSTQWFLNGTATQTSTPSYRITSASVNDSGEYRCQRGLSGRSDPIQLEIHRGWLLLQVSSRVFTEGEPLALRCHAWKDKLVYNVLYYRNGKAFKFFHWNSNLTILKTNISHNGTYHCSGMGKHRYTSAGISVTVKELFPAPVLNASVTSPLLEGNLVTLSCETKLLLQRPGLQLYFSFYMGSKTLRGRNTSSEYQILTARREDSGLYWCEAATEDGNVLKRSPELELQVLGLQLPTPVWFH
row,relative binding activity,Binder
1,-1 % of GpH7-B3/GpL16-k0,B1
2,11 % of GpH7-B3/GpL16-k0,B2
3,3 % of GpH7-B3/GpL16-k0,B3
4,83 % of GpH7-B3/GpL16-k0,B4
5,94 % of GpH7-B3/GpL16-k0,B5
6,80 % of GpH7-B3/GpL16-k0,B6
7,95 % of GpH7-B3/GpL16-k0,B7
8,1 % of GpH7-B3/GpL16-k0,B8
9,67 % of GpH7-B3/GpL16-k0,B9
10,93 % of GpH7-B3/GpL16-k0,B10
11,0 % of GpH7-B3/GpL16-k0,B11
12,50 % of GpH7-B3/GpL16-k0,B12
13,65 % of GpH7-B3/GpL16-k0,B13
14,66 % of GpH7-B3/GpL16-k0,B14
15,2 % of GpH7-B3/GpL16-k0,B15

# Biological target: T5, human FcγRIIIa(F) (human, UniProt P08637 17-208, limits assumed)
# T5 construct: also called FcgRIIIaF; allotype F158
# Experiment: SPR (Biacore);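 further: antibody variants captured on sensor chip, Fcγ receptor flowed over at 25 °C, bound receptor normalized to amount of captured antibody, expressed relative to reference antibody set as 100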
# Method: as §1, §2
# T5 sequence (P08637 other isoform, or with tags, fused parts or gaps limits assumed): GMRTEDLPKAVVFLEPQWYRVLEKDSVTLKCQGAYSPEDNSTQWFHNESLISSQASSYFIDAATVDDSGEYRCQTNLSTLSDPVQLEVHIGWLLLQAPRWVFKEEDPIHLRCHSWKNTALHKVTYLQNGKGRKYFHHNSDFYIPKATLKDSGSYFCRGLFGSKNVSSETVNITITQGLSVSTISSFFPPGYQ
row,relative binding activity,Binder
1,6 % of GpH7-B3/GpL16-k0,B1
2,36 % of GpH7-B3/GpL16-k0,B2
3,47 % of GpH7-B3/GpL16-k0,B3
4,45 % of GpH7-B3/GpL16-k0,B4
5,36 % of GpH7-B3/GpL16-k0,B5
6,25 % of GpH7-B3/GpL16-k0,B6
7,5 % of GpH7-B3/GpL16-k0,B7
8,60 % of GpH7-B3/GpL16-k0,B8
9,47 % of GpH7-B3/GpL16-k0,B9
10,42 % of GpH7-B3/GpL16-k0,B10
11,9 % of GpH7-B3/GpL16-k0,B11
12,4 % of GpH7-B3/GpL16-k0,B12
13,0 % of GpH7-B3/GpL16-k0,B13
14,49 % of GpH7-B3/GpL16-k0,B14
15,28 % of GpH7-B3/GpL16-k0,B15

# Biological target: T2, human FcγRIIa(H)
# Experiment: SPR (Biacore);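 further: antibody variants captured on sensor chip, Fcγ receptor flowed over at 25 °C, bound receptor normalized to amount of captured antibody, expressed relative to reference antibody set as 100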
# Method: as §1, §2
row,relative binding activity,Binder
1,0 % of GpH7-B3/GpL16-k0,B1
2,39 % of GpH7-B3/GpL16-k0,B2
3,33 % of GpH7-B3/GpL16-k0,B3
4,45 % of GpH7-B3/GpL16-k0,B4
5,63 % of GpH7-B3/GpL16-k0,B5
6,16 % of GpH7-B3/GpL16-k0,B6
7,15 % of GpH7-B3/GpL16-k0,B7
8,60 % of GpH7-B3/GpL16-k0,B8
9,35 % of GpH7-B3/GpL16-k0,B9
10,72 % of GpH7-B3/GpL16-k0,B10
11,1 % of GpH7-B3/GpL16-k0,B11
12,2 % of GpH7-B3/GpL16-k0,B12
13,1 % of GpH7-B3/GpL16-k0,B13
14,48 % of GpH7-B3/GpL16-k0,B14
15,88 % of GpH7-B3/GpL16-k0,B15

# Biological target: T3, human FcγRIIb
# Experiment: SPR (Biacore)
# Method: as §1, §2
row,relative binding activity,Binder
1,-3 % of GpH7-B3/GpL16-k0,B1
2,23 % of GpH7-B3/GpL16-k0,B2
3,32 % of GpH7-B3/GpL16-k0,B3
4,33 % of GpH7-B3/GpL16-k0,B4
5,90 % of GpH7-B3/GpL16-k0,B5
6,19 % of GpH7-B3/GpL16-k0,B6
7,26 % of GpH7-B3/GpL16-k0,B7
8,88 % of GpH7-B3/GpL16-k0,B8
9,44 % of GpH7-B3/GpL16-k0,B9
10,63 % of GpH7-B3/GpL16-k0,B10
11,-2 % of GpH7-B3/GpL16-k0,B11
12,0 % of GpH7-B3/GpL16-k0,B12
13,27 % of GpH7-B3/GpL16-k0,B13
14,37 % of GpH7-B3/GpL16-k0,B14
15,66 % of GpH7-B3/GpL16-k0,B15
